Read-outs that look alike come from different tables or passages of the source.
Key:
[1] = target: human PAPP-A E1535A mutant (human, UniProt Q13219 82-1627); assay: binding to alanine mutants of human PAPP-A (ELISA per paragraph 531)
Description: (§1) A, PAC1 binding to human PAPP-A/PAPP-A2 chimeras or truncated human PAPP-A variants analyzed by ELISA. Sequence derived from PAPP-A is shown by open bars, and absence of binding (−) or binding (+) is indicated. […] Samples with or without EDTA (10 mM) were injected (120 s) followed by dissociation (180 s) (solid lines). […] The absence of binding (−) or binding (+) is indicated. PAC5, which was used as a positive control, binds to an epitope of PAPP-A located N-terminal to CCP1.
(§2) Determination of antibody specificity and mapping of antibody binding—Mapping of antibody binding was carried out by ELISA using PAPP-A/PAPP-A2 chimeric proteins, and mutated variants of PAPP-A. The proteins were immobilized with polyclonal PAPP-A antibodies, and binding of phage antibodies were analyzed as detailed above.

human PAPP-A(D1499A) = human PAPP-A(D1499A) (human, UniProt Q13219 82-1627); assay: as above
human PAPP-A(D1499A), sequence (Q13219 other isoform, or with tags, fused parts or gaps D1499A D1499A limits assumed): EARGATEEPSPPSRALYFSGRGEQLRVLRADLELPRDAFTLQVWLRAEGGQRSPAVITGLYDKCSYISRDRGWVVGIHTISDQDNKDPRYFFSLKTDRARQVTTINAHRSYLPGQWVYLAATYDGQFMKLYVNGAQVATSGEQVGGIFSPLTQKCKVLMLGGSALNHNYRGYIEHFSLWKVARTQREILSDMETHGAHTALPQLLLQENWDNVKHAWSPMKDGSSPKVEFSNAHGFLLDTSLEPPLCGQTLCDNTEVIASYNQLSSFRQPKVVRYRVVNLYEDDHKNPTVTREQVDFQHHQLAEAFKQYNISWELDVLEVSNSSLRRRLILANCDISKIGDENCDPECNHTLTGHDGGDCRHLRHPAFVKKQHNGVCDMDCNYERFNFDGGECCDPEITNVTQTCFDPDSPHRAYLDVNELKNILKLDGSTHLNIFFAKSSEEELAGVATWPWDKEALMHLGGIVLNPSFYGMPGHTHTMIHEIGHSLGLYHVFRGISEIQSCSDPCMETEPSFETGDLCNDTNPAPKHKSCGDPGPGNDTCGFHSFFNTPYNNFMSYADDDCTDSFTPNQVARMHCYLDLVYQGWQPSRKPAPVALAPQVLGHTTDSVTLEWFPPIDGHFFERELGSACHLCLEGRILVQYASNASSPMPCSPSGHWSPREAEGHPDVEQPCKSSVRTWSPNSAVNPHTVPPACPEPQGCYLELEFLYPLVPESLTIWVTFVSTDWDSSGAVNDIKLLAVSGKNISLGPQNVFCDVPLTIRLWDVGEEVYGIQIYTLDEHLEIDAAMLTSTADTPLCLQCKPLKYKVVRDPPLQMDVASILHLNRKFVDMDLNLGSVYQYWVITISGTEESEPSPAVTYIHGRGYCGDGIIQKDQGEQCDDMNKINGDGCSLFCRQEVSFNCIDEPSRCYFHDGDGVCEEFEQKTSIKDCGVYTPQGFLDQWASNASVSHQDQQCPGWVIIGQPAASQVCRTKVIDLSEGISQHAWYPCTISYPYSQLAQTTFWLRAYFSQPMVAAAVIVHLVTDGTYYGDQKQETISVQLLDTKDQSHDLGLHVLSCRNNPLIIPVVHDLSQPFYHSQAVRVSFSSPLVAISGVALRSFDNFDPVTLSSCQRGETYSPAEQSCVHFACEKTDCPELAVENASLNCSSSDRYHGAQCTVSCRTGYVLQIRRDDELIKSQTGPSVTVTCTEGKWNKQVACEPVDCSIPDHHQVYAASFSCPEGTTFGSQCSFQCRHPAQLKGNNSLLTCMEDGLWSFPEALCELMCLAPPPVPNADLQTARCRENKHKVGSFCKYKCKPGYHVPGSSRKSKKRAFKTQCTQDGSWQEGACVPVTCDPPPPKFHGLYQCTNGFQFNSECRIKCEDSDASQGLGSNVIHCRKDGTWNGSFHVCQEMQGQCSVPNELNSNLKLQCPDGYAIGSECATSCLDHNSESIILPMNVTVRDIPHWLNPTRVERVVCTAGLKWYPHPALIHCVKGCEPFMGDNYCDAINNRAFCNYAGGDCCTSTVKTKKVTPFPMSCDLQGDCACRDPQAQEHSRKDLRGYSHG
Description: as §1, §2

[2] = target: human PAPP-A D1525A mutant (human, UniProt Q13219 82-1627); assay: as above
human PAPP-A D1525A mutant, sequence (Q13219 other isoform, or with tags, fused parts or gaps D1525A D1525A limits assumed): as the sequence (Q13219 other isoform, or with tags, fused parts or gaps D1499A D1499A limits assumed) above, with A1499D, D1525A counted along it
Description: as §1, §2

[3] = target: human PAPP-A K1509A mutant (human, UniProt Q13219 82-1627); assay: as above
human PAPP-A K1509A mutant, sequence (Q13219 other isoform, or with tags, fused parts or gaps K1509A K1509A limits assumed): as the sequence (Q13219 other isoform, or with tags, fused parts or gaps D1499A D1499A limits assumed) above, with A1499D, K1509A counted along it
Description: as §1, §2

human PAPP-A(D1484A) = human PAPP-A(D1484A) (human, UniProt Q13219 82-1627); assay: as above
human PAPP-A(D1484A), sequence (Q13219 other isoform, or with tags, fused parts or gaps D1484A D1484A limits assumed): as the sequence (Q13219 other isoform, or with tags, fused parts or gaps D1499A D1499A limits assumed) above, with D1484A, A1499D counted along it
Description: as §1, §2

[4] = target: human PAPP-A R1529A mutant (human, UniProt Q13219 82-1627); assay: as above
human PAPP-A R1529A mutant, sequence (Q13219 other isoform, or with tags, fused parts or gaps R1529A R1529A limits assumed): as the sequence (Q13219 other isoform, or with tags, fused parts or gaps D1499A D1499A limits assumed) above, with A1499D, R1529A counted along it
Description: as §1, §2

[5] = target: human PAPP-A D1530A mutant (human, UniProt Q13219 82-1627); assay: as above
human PAPP-A D1530A mutant, sequence (Q13219 other isoform, or with tags, fused parts or gaps D1530A D1530A limits assumed): as the sequence (Q13219 other isoform, or with tags, fused parts or gaps D1499A D1499A limits assumed) above, with A1499D, D1530A counted along it
Description: as §1, §2

human PAPP-A(D1502A) = human PAPP-A(D1502A) (human, UniProt Q13219 82-1627); assay: as above
human PAPP-A(D1502A), sequence (Q13219 other isoform, or with tags, fused parts or gaps D1502A D1502A limits assumed): as the sequence (Q13219 other isoform, or with tags, fused parts or gaps D1499A D1499A limits assumed) above, with A1499D, D1502A counted along it
Description: as §1, §2

human PAPP-A(E483Q) [6] = target: T1, human PAPP-A(E483Q) (human, UniProt Q13219 82-1627); assay: SPR, calcium ion dependence of binding to immobilized PAPP-A
T1 construct: Active-site mutant; also called immobilized PAPP-A (SPR)
T1 sequence (Q13219 other isoform, or with tags, fused parts or gaps E483Q E483Q limits assumed): as the sequence (Q13219 other isoform, or with tags, fused parts or gaps D1499A D1499A limits assumed) above, with E483Q, A1499D counted along it
Description: (§3) Surface plasmon resonance analysis—Surface plasmon resonance experiments were carried out on a BIAcore T100 instrument (BIAcore AB, Uppsala, Sweden) using series S CM5 sensor chips and coupling reagents supplied by the manufacturer. Affinity purified PAPP-A(E483Q), 10 μg/mL in 10 mM sodium acetate, pH 5.0, was immobilized (at a level of 500 resonance units (RU)) to the activated chip at 25° C. Remaining activated groups were blocked by 1M ethanolamine. Purified antibodies (0.35-11 nM) diluted in 10 mM HEPES, 150 mM NaCl, 1 mM CaCl₂, 0.05% Tween-20, pH 7.4 (HBS), were injected over the sensor chip for 2 min at a flow rate of 30 μL/min at 37° C. Recorded signals were subtracted the background signal, determined by the injection of an irrelevant antibody. […] Data were analyzed using the software of the manufacturer (BIAcore T100 evaluation Software version 1.1).
However, the binding was only disturbed when PAC1 was injected with EDTA onto a chip equilibrated with the calcium ion containing buffer (FIG. 8B). Following EDTA treatment, equilibration of the flow cell using calcium ion containing buffer restored its ability to bind PAC1 (FIG. 8B). […] Similar results were obtained with PAC2 (not shown).

human PAPP-A(E483Q) [7] = target: T1, human PAPP-A(E483Q); assay: SPR (BIAcore T100), PAPP-A immobilized on CM5 chip, PAC1 0.35-11 nM injected at 37 C, 1:1 model, global fit; SPR, 37 C, PAPP-A on the chip
Description: (§4) A) Cleavage of IGFBP-4 (10 nM) by human PAPP-A (0.1 nM) in the presence of PAC1 (1.5 μM). The cleavage reaction was incubated (37° C.), and samples were taken out at intervals from 0 to 60 min, as indicated above each lane. The cleavage was visualized by SDS-PAGE followed by autoradiography. At 60 min, a faint band is visible at the position of the cleavage products (c). B) Cleavage of IGFBP-4 (10 nM) by murine PAPP-A (0.1 nM) for 1 h at 37° C. in the presence of 0-750 nM PAC1, as indicated above each lane. C) Cleavage of IGFBP-4 (10 nM) by PAPP-A (0.1 nM) was analyzed at different concentrations of PAC1. Relative initial velocities, determined independently, are plotted as a function of PAC1 concentration. All concentrations were determined by amino acid analysis (IGFBP-4 and PAC1) or ELISA (PAPP-A). Assuming competitive inhibition, an inhibitory constant was calculated (Kᵢ=1.2 nM±0.1). D) Sensorgrams showing binding of PAC1 to immobilized human PAPP-A. Purified PAC1 (0.35, 0.7, 1.4, 2.8, 5.5, and 11 nM) was injected onto the chip at 37° C. for 120 s followed by dissociation for 300 s.
as §3

[8] = target: T2, human pregnancy-associated plasma protein-A (PAPP-A) (human, UniProt Q13219 82-1627); assay: inhibition of IGFBP-4 (10 nM) cleavage by human PAPP-A (0.1 nM), relative initial velocities against PAC1 concentration, competitive inhibition assumed; IGFBP-4 cleavage assay, competitive inhibition assumed
T2 construct: Recombinant, from 293T cells; also called human PAPP-A; full-length PAPP-A
T2 sequence (Q13219 other isoform, or with tags, fused parts or gaps limits assumed): as the sequence (Q13219 other isoform, or with tags, fused parts or gaps D1499A D1499A limits assumed) above, with A1499D counted along it
Description: as §4, with “D) Sensorgrams showing binding of PAC1 to immobilized human PAPP-A. Purified PAC1 (0.35, 0.7, 1.4, 2.8, 5.5, and 11 nM) was injected onto the chip at 37° C. for 120 s followed by dissociation for 300 s.” left out
Measurement of proteolytic activity—Proteolytic activity of PAPP-A against IGFBP-4 and -5 was analyzed as previously described in detail (45). In brief, purified substrates, quantified by amino acid analysis, were labelled with ¹²⁵I (Amersham Biosciences). […] The degree of cleavage was determined by quantification of band intensities using a Typhoon imaging system (GE Healthcare), and background levels (mock signals) were subtracted. […]

[9] = target: T2, human pregnancy-associated plasma …; assay: cell-based or functional assay
[10] = target: T2, human pregnancy-associated plasma …; assay: cell-based or functional assay; remark: listed apart in the source

human PAPP-A E1535A mutant, sequence (Q13219 other isoform, or with tags, fused parts or gaps E1535A E1535A limits assumed): as the sequence (Q13219 other isoform, or with tags, fused parts or gaps D1499A D1499A limits assumed) above, with A1499D, E1535A counted along it

B1: PAC2 (PAPP-A exosite antibody, scFv) (scFv)
scFv: EVQLLESGGGLVQPGGSLRLSCAASGFTFSSYAMSWVRQAPGKGLEWVSSIQADGTRTGYADSVKGRFTISRDNSKNTLYLQMNSLRAEDTAVYYCAKQRGIFDYWGQGTLVTVSSGGGGSGGGGSGGGGSTDIQMTQSPSSLSASVGDRVTITCRASQSISSYLNWYQQKPGKAPKLLIYRASGLQSGVPSRFSGSGSGTDFTLTISSLQPEDFATYYCQQSHHYPSTFGQGTKVEIKRAAAHHHHHHGAAEQKLISEEDLNGAA
notes: Selected from the Tomlinson I+J phage libraries; also called scFv PAC2
Does B1 bind [1]?
Result: binds

Does B1 bind (human PAPP-A(D1499A))?
Result: no binding

Does B1 bind [2]?
Result: binds

Does B1 bind [3]?
Result: binds

Does B1 bind (human PAPP-A(D1484A))?
Result: no binding

Does B1 bind [4]?
Result: no binding

Does B1 bind [5]?
Result: no binding

Does B1 bind (human PAPP-A(D1502A))?
Result: no binding

Does B1 bind (human PAPP-A(E483Q) [6])?
Result: binds

B2: PAC1 (PAPP-A exosite antibody, scFv) (scFv)
scFv: EVQLLESGGGLVQPGGSLRLSCAASGFTFSSYAMSWVRQAPGKGLEWVSVITDMGRTTRYADSVKGRFTISRDNSKNTLYLQMNSLRAEDTAVYYCAKGLRQFDYWGQGTLVTVSSGGGGSGGGGSGGGGSTDIQMTQSPSSLSASVGDRVTITCRASQSISSYLNWYQQKPGKAPKLLIYHASQLQSGVPSRFSGSGSGTDFTLTISSLQPEDFATYYCQQYGGNPTTFGQGTKVEIKRAAAHHHHHHGAAEQKLISEEDLNGAA
notes: Selected from the Tomlinson I+J phage libraries and produced in E. coli HB2151; Purified scFv was used in SPR and cleavage assays; also called scFv PAC1; antibody PAC1
For B2, which Kd (human PAPP-A(E483Q) [7]) is on record?
Its Kd is 0.25 nM.

What about the koff (human PAPP-A(E483Q) [7]) of the same binder?
Its koff is 0.00109 s⁻¹.

And the kon (human PAPP-A(E483Q) [7])?
The kon was 4.36e+06 M⁻¹ s⁻¹.

Does B2 bind (human PAPP-A(D1499A))?
Result: no binding

Does B2 bind (human PAPP-A(D1484A))?
Result: no binding

Does B2 bind [4]?
Result: no binding

Does B2 bind [5]?
Result: no binding

Does B2 bind (human PAPP-A(D1502A))?
Result: no binding

And the Ki [8]?
Its Ki is 1.2 nM.

What about the “IC50 (read off the curve)” value [9] of the same binder?
Its value is about 2 nM.

What about the “IC50 (read off the curve)” value [10] of the same binder?
The value was about 1 nM.

From patent publication US20100310646A1 (AARHUS UNIVERSITET, published 2010)
